According to patent publication US20180339042A1 (published 2018):

Biological target: T1, human GITR, membrane bound (human, UniProt Q9Y5U5 26-241)
T1 sequence: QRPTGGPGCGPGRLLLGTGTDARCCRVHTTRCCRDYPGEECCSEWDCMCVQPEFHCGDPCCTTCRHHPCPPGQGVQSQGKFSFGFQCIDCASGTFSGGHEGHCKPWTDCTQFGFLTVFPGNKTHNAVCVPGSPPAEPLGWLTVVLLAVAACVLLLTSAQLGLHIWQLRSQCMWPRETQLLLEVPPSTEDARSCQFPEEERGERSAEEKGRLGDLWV
Test: cell-based or functional assay

B1: 28F3 (antibody, human IgG2, kappa)
heavy: QVQLVESGGGVVQPGRSLRLSCAASGFTFSSYGMHWVRQAPGKGLEWVAVIWYEGSNKYYADSVKGRFTISRDNSKNTLYLQMNSLRAEDTAVYYCARGGSMVRGDYYYGMDVWGQGTTVTVSSASTKGPSVFPLAPCSRSTSESTAALGCLVKDYFPEPVTVSWNSGALTSGVHTFPAVLQSSGLYSLSSVVTVPSSNFGTQTYTCNVDHKPSNTKVDKTVERKCCVECPPCPAPPVAGPSVFLFPPKPKDTLMISRTPEVTCVVVDVSHEDPEVQFNWYVDGVEVHNAKTKPREEQFNSTFRVVSVLTVVHQDWLNGKEYKCKVSNKGLPAPIEKTISKTKGQPREPQVYTLPPSREEMTKNQVSLTCLVKGFYPSDIAVEWESNGQPENNYKTTPPMLDSDGSFFLYSKLTVDKSRWQQGNVFSCSVMHEALHNHYTQKSLSLSPGK
light: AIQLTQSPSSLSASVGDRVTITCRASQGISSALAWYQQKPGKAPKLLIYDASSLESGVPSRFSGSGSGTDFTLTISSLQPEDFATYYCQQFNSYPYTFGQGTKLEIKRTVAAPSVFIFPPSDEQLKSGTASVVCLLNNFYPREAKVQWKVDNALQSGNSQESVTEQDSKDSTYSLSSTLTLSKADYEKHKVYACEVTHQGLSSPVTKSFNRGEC
NFKB signaling (phospho-p65), CD4+ T cells, Emax (%): 69% | NFKB signaling (phospho-p65), CD8+ T cells, Emax (%): 85%
